In paper PMC7214410, “A deubiquitylase with an unusually high-affinity ubiquitin-binding domain from the scrub typhus pathogen Orientia tsutsugamushi” (Nature Communications, 2020):

Experiments:
Details in all cases: both partners purified
[1] = target: T1, human ubiquitin (His tag cleaved, for the co-crystal) (human, UniProt P0CG48 1-76); test: crystal structure
T1 construct: also called free ubiquitin; UbS1; source: E. coli BL21(DE3), purified (Ni-NTA, TEV cleavage, HiTrap S, Superdex 75)

[2] = target: T2, 6His-ubiquitin (human, UniProt P0CG48 1-76); test: pull-down; GST-tagged UBD (25 µM) mixed with His-tagged ubiquitin (75 µM) in 25 mM Tris-HCl pH 8.0, 100 mM NaCl, 0.1 mM TCEP; glutathione sepharose 4B, 1 h at 2 °C; eluted with glutathione, Coomassie
T2 construct: also called His-tagged human ubiquitin; His-tagged ubiquitin; source: E. coli BL21(DE3), purified (Ni-NTA)

[3] = target: T3, untagged ubiquitin (UniProt P0CG48 1-76); test: ITC
T3 construct: also called mono-ubiquitin; Mono Ub; source: E. coli, purified (heated to 85 °C, SP-Sepharose, Superdex 75)

[4] = target: T3, untagged ubiquitin; test: ITC; remark: listed apart in the source

Binder	binding result [2]	also measured
OtDUB_(1–259) (domain or fragment, also called OTT_1962 DUB domain with VR-1/UBD; DUB-UBD segment; source: E. coli BL21(DE3), purified (Ni-NTA, TEV cleavage, HiTrap Q, Superdex 75)) GMANDQDLSNPEYLYTEDDINQLLKHYLGLDDRISIIQHVALNESLLLKQTLHQVLSDIFSGMQEKAVIPLHTGNNHWVAMAIKKGMNDDIVISYNDPMGVSIDDKVTLINCIKELCPGAKINDLQTVQQTNVYDCGPFVVDNLIKMSQGQPILSTEEAKQQAQNIRQSQVNFLSENRMITSAAAALADTLLKNNNRITEGVLVDRIFDNKILSVQEKQQLLNNLLDNHIKENKSLTKESLTRMLASTHFVQQQANVLLN	–	binding result [1]: binds
GST-UBD_(170–259) (domain or fragment, also called GST-tagged UBD; OtDUBUBD; source: E. coli BL21(DE3), purified (Ni-NTA, GSTrap HP)) VNFLSENRMITSAAAALADTLLKNNNRITEGVLVDRIFDNKILSVQEKQQLLNNLLDNHIKENKSLTKESLTRMLASTHFVQQQANVLLN	binds	–
GST-UBD_(170–259) D204A/D208A (domain or fragment, also called charge-neutralizing mutant; source: E. coli BL21(DE3), purified (Ni-NTA, GSTrap HP)) VNFLSENRMITSAAAALADTLLKNNNRITEGVLVARIFANKILSVQEKQQLLNNLLDNHIKENKSLTKESLTRMLASTHFVQQQANVLLN	binds	–
GST-UBD_(170–259) F207D (domain or fragment, source: E. coli BL21(DE3), purified (Ni-NTA, GSTrap HP)) VNFLSENRMITSAAAALADTLLKNNNRITEGVLVDRIDDNKILSVQEKQQLLNNLLDNHIKENKSLTKESLTRMLASTHFVQQQANVLLN	binds	–
GST-UBD_(170–259) N222A/D226A (domain or fragment, also called charge-neutralizing mutant; source: E. coli BL21(DE3), purified (Ni-NTA, GSTrap HP)) VNFLSENRMITSAAAALADTLLKNNNRITEGVLVDRIFDNKILSVQEKQQLLANLLANHIKENKSLTKESLTRMLASTHFVQQQANVLLN	binds	–
OtDUB_(1–177)-C135A (domain or fragment) MANDQDLSNPEYLYTEDDINQLLKHYLGLDDRISIIQHVALNESLLLKQTLHQVLSDIFSGMQEKAVIPLHTGNNHWVAMAIKKGMNDDIVISYNDPMGVSIDDKVTLINCIKELCPGAKINDLQTVQQTNVYDAGPFVVDNLIKMSQGQPILSTEEAKQQAQNIRQSQVNFLSENR	–	Kd [3]: 6.3 ± 0.2 µM
OtDUB_(170–264) (the UBD) (domain or fragment, source: E. coli Rosetta DE3, purified (glutathione resin, SEC)) VNFLSENRMITSAAAALADTLLKNNNRITEGVLVDRIFDNKILSVQEKQQLLNNLLDNHIKENKSLTKESLTRMLASTHFVQQQANVLLNEKFNK	–	Kd [4]: 0.0053 ± 0.0039 µM
